Data from the domain aggregation screens of Martell et al. (2025).

Assay: soluble fraction after stress (log2 fold change); higher = more stays soluble; pooled small domains, quantitative proteomics
Conditions: stress: 75 degC
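Also: 20 min heating vs room temperature control held 20 min.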

Row | Sequence | soluble fraction (log2)
1 | HMITERVPVPDLTGMPLMEAIKTLNSSKLQYQVVGSVIEGDENRIIDQTPKPDIMVSEKSIVLLYLETYRG | -2.6
2 | HMEELPIIVAQRFLNIFRQLHIFSDERREAFNKMLLELPPEVKSIFQSLPGGTPLQEYMEDLEQKSK | -0.721
3 | HMINLRTALNNAGVMQKELSDILYMTPQDVNRRFSGVTKWKPLEKRAIMQFLEDRGFEYTEEQLF | -0.564
4 | HMHMKTIEWDSLVLIMYKDMKYLKRINEGQSFHGKGGMLNYADLIGKTYGIRFGQYEIFEPSLEDIVMYG | -0.0889
5 | HMDEVHYLADKERGTTWEEILIHADRDIKFLSLSATINNKNEFLEWLVSLRGTTSLIHSSTRPIPLEI | 0.231
6 | HMEDEISLGAINVPRGSVIVTAGGARLVEGSDYTVDYYSGTVKILNKSLLDAGTPINVSLET | -0.0249
7 | HMNASTVTLENFEGAKYDDVYGKYDYQFSVTYEQTDKYESGVIISQKPEAGTKIIKGSQVSLVVAT | 0.115
8 | HMATRAEQMAKTHQAILDTARELFLRNGYDATSTRDIANAIGITQPALYHHFKDKEVIFLAVI | -0.107
9 | HMRARTQYWPFVEEKAAELKLPLHLVNVEPLFGEQKVVVHYTANGRIDFRELVHLLARRFHARIEMR | 0.0673
10 | HMLEDIDNSIKKEIILEHYDKMLEFHGDYGAIIFRKLLHAYSKGYTGANEFRDLVNQISDKNIMRDLIESF | -0.947
11 | HMGSYIGEAKAKEIALSHAGVSASQATFVRSQFEYDDGRAVYDVDFWSGNKEYDYEIDAKSGTIVSYDFD | -0.736
12 | HMAPKSALKIIEQISNNPRATMTDLANLTGYSRRWVAQTIKRLQEENIIKRIGSDKSGYWEIIG | -0.807
13 | HMVINVKEILERIKLVKGFHTQIEIARFLGVSKGTISNWLARNSVDFPLVISKLDGVDLNWLFTGIGMPQ | -3.77
14 | HMDLPDFTSRERDILARVVQGDSNERIAASLGVSVSTVKTHIGNILRKTGQTNRVRLIVWATRHL | -2.58
15 | HMNVNSQQINDLEKSIQKFFDKDIKNYLNQNLSNDRMISKNEIDKIILLYYGSDKEPTLDEIKSIFN | -0.216
16 | HMAPLRTQYVNVNYANAAEIKTLISGADKEVGSLLSERGSVVVDKRTNTLIIQDTQARLNDIGDLIEQLD | 0.144
17 | HMIKSMTGYGSAKGTVEGIEVSVELKSVNNKFLDTSIRLPRSFLFAEETIKQAVSSHISRGKVDVFVSVDS | 0.587
18 | HMKGEIEELLYEEVTKDNNTTFLRIYIKLNDEYNTLLNLGIIGIKTEEKVNELVNLGYKKVL | -4.19
19 | HMVSTSVTVTGDLNVRADSRADSDLVGALIPGQTVTRLAVLDNGWSKIRFDDGAGTVVEGYVLSEYLQADG | 0.335
20 | HMLLQENRKLHSKLEELQLISRAKAVLIEYLKLTEPQAHRYIEKQAMDLGLTRPQVALNILKTYE | -1.38
21 | HMTPPLSKIRNMTPDQQRSSVIEARKKGYNLLQLEGLAKAQGATPADLLVLRNAWAQSEFDQKR | 0.067
22 | HMTRQPSAKEHAVLTAVKEGLRRDGRAPTVRALADMTGAASTSTVQRRISALIDLGLLRRTDGTLEVVE | 0.0806
23 | HMQAKNGTVTGSVVNVRGGAGTQYAVKGKASRGTKVTILGQQSSWLNVRLDNGVTGWIHADYVQISE | 0.592
24 | HMTPTRQATVSVAALNVREQPSLQGRRLGKLTQGTTLTVVGPPGEWLKIEYKGETGFVYASYTSLG | -2.01
25 | HMEIDDPWLILGINAGSSIEIAQKAWKDLASQNHPDKLIANGVPKELLGMANEKLAIINGAYDKILKAHKI | -0.295
26 | HMQIYSQEIYDAQKVLKELGLYTSDLDGLNGPGTKRALRNFQSKSGLNADGVLGPLTKSALDKGEESYITV | -0.0827

Row | Sequence | soluble fraction (log2)
27 | HMKRITGHLTEKNKKWYAVINLYDTDGKRKEKWQGLNLDANKGNKREAEHRLRQILDQYNTD | -0.258
28 | HMSRLQDAELQAQIDKMAGAMQLRDIPVYVQDIPTINGLAAPDGRVFITQGFIDKYKLGEVSAGEIASVI | 0.29
29 | HMGHYGQMTRDLIEKAKTYEEGEEKAALVLTIANLMKRHYLTWNRATVENTLIAEQLKEMSEGALTLPEDV | -0.956
30 | HMKTSTGSAMYLTLDLAEKYAGQAFTLVHKKADGTFEYLYATADVDGKVKFGPVYELSPFMLVKGQL | -1.66
31 | HMGMVDKSMYSRYDVGDLVKVLRGPLEGSEGHITEINTDTGTVKVETVFFGRSTVVEVDFSEIDK | -1.37
32 | HMTNEWRKILSNLNGKYQIVMELFYVDGFSTKEIARMLHITEVNVRSRMVRGRKQLEQILTVR | -0.0301
33 | HMGSFDDAPDQLRQSILQLLAEGPLPPSAITERLNISREDATEALQQLLDEQRIFAVNGMLQLQPG | -0.109
34 | HMGSGQIRYITENTVRVVYGTSKENEFVFQDGKPYPKDTPYHIHYTRNLEEYFMSGVEHDKNSKIILKVD | -0.946
35 | HMVLQHHTATKALSYHTSASASAAVKGSFARGDSVQVVQGGSQTADGAKWHKVKVGSSYYYAAAEHLTP | ≥ 1.04
36 | HMGPPAVGAKLQVLRQARKLSLDELSRRAGVSKSMLSQVERNLANPTVAVLWRLATALGVGLADFLSP | -3.02
37 | HMPAAPVFLQKDLLDAGLIGQADSAARREKLGKILGIGYGNGKVMLQRLNSFGIERDAFEQAVQE | 0.081
38 | HMTEPKILTAEESQRLDLILVQQWPELGRRALRELVQQGGVRINGELALKAGQYVQAGERVEVAVP | 0.232
39 | HMAKLTPDQQELRAIRIELQMSQPDFADAININVPRLSSYEYGRTAGVPTSIMEAARELKRSMSR | -0.848
40 | HMHINLEGLKKIDFRKKIGFLFGSEASGLSNKEVSYANYTLQIPTNINFKSLNLSHSLIIIAQFISSLLNS | -0.55
41 | HMLEINTIIGNNLKKIRQEKKLTLDELAGITGVSKGMLSQIEKGTTNPTINTIWKISNGLNVPYTYLLEDD | -0.513
42 | HMQSRYALLAGMLRARITEGDWVPGSAIPAETVLAKEHGVALGTMRQAIALLVSQGLLERQHGRGTFVRS | -1.58
43 | HMEALNIEQKKVEIINVLLEKGKGKGRLSYKEISDQIDTVELDKDQMDELYETLMTNGIEIV | 0.00136
44 | HMGSKKITIYVSGEVKNPGIVTLNSDQRLASAVEKLGGVTENADMNNINLAMKLEDEMHYIIPKKGEK | -0.0389
45 | HMAIELIDLIKNPETAPFSKLKYLKWMPEAEVTGFFNNLFQLNVTARETGDWSTVDKFLEDEGDRIAAQVA | -0.0284
46 | HMPPAIKTLMFMIQNKSLLKSPKQLAVVQQQLKKIKGVRDVLILLEEGKVMLKVNKHETIHEASIIRLLGG | -1.87
47 | HMGEKTVPNVIGQKLATAKQLLEKEGLTVGSTSYNKNQADKDTVLSTDPAPGSHLSEGAKVNLTLSSGA | 0.0786
48 | HMGTRPAYAADAPNPQKRFIYHRIVDQLRNKATGAPISYRAIAAETGVSVQTVINIKNRMNQMLSEK | -1.27
49 | HMKDRDISNAVLNILSKDSDHNYNYKQIASVLGVKDPFVRKRIVSVLAQLTKNGQLEEISRGKYQIKN | -0.478
50 | HMESDRVAHVVAPGETLFSISGKYGIGMGELVAANPVLESRPPRTGDTLLIRLPENPLPAETDAETLS | 0.643
51 | HMDGRIRFRHAALHDPDVAARLHDYLTTSLPGVRSARVNSQTGSLLLEYDPEVLDRSTLLDLAARAESLL | -0.493
52 | HMKKPAERRKELVDAAAHLFAEKGYENTSVRDILDAVGGAPGMFYYYFKSKQDIYVAVMEDF | -3.71

Row | Sequence | soluble fraction (log2)
53 | HMPSEQGANKARDIIFRHHMKVDVWVGSWENARNYAEQAIKQGVKVIISRGGTAALLRHSLDTAIIKVR | 0.14
54 | HMAMMTKQRLIQLIHIARNDLQMDEDTYRQMLQGLTGKASTKGMDTPQLNRVLESMKKKGFRIK | -1.69
55 | HMPAELGVVVRNANLRSGPGTKYAIVGSAPAGTTVRIAGTNKAGDWYHLSSGRWIAAFLVDRN | -1.99
56 | HMLIRKGVVSFFNDAKGYGFIKDLVTQESAFVHVNSLSETIKEHDKVTFEVEMGHKGANAVNVKLVK | -1.09
57 | HMSVFGMEIGKTTEAEAGRMYRLNKEQLNPYSGGYQYSVNPKAIDFSGLEQVTLIFDEKKVLVYVQAV | 0.144
58 | HMQILVEGVEANQRLDLFLRARLTEFSRSRIQGLVKNGNVLVNGNIARQAYLVQVGDKIELDVPEPVA | -0.603
59 | HMAIKWTPEIEDEVSNKLKEKWSPEQISAWLKKNKSIMISHQRIYQFIVEDKMSGGNLYRNLRQ | -2.45
60 | HMGIVVDGTMTLEGVAERYGMSVGELARVIGVPPEYSNERLGRLRKSYEFEMDDIRIYIIQKQ | -1.54
61 | HMRIGINDRIHEIVDVLRLKKSTPFEDLFSGLVTRFDLVITFLALLEMGKLRLLRLYQTDPLAPLHVEYTG | -0.0164
62 | HMIRSNLAEQAYAQLKALIHDFQLLPGDRFSENEMGTRLGVSRTPVREALFRLRNEGFLEVESKAGWYVK | -3.04
63 | HMIAVSQEQIKQIIVDDPSFHDANGKFSQALLTQYLNQRRMSEDQFVEEIRDQFLFQNLQNLVQNG | 0.278
64 | HMPEVYSFEVNEGAAGKRLDIFLSGEIEGLTRSFIQKLISEGMATVNQEPPRASYRVKTRDLVELQIPDPE | -0.334
65 | HMSTKYSSNIISLVKGLMEEDQYKDLMGPPLKKEIIKKVESITDTFPYKFDKDDKEFIVKKVLISLRK | -1.77
66 | HMDRSAQVLFLEHARSRLPQRIQWAEELAELLSIGIDSAYRRIRGETALTFNEAVSVSRKYDISLDYLFK | -3.79
67 | HMGVDASVDSKLDLLSQVLDSDQVKEQLPEAVLEQLAQNLDRWRSLHEESELQDDDIAELNRLLGLFGLG | 0.111
68 | HMSETQDQTTIEIEDMITVGTLAERLSIPVSTLIGELMKNGVMATVNEKIDFDTAQIIVGELKLPIELSKK | 0.0487
69 | HMEALPSNLRRLRLEAQLTLDRLGALSGVSRAMISKIERGASVPTATMLGKLAAALQVSLSQLL | -1.18
70 | HMSAAELFEERQRQYLRGRKSTKNIADNHGTIILRAGETITDQAIDKAKVAGKLVELVMNNE | 0.104
71 | HMLMKPQKTRDVLRYLKSIGWVRLRGGQGSHEIWGLPDGSIRAVIPAGHREISAGVLMQLKRAGVDVPTQW | -1.25
72 | HMENFSTLFSRLKEERGLSNKQISSFTGAPIKEVKKWESGMGIPTEKRIVAALEGILGSEISKAI | -0.125
73 | HMTEKEEERTEDLNYYRLNLISMLKSSYPEYLDDEEFISNRSQEAAEAFEDAVRSGSNYLDASAESNRTLY | -0.229
74 | HMYDFGVILQKLRKEKGFTQEQLARLIHKESSIISRYEKGLQNPTFETVKEFAAIFNVSMDYLAG | -1.49
75 | HMHLYDMYNLTEKEISIIRLIANGLNNKEISQELFLSEGTIKNNITNILAKLELRDRTQLAIFAFKNKIVI | -3.6
76 | HMNNQILYERLRDLRERNHFTQAFVSSKLNIGRATYSNYERGKRTPSLDVIMDLASFYKVPFTYF | 0.0974
77 | HMTPDVAEFRERLRQILPGEQIEVRTANDGIVLSGTVSSIARLDAALQLAERYAPSRVSNLMSVG | 0.00274
